Source: patent publication US8828940B2, “Method of treating an ischemia-reperfusion injury-related disorder by administering GPCR ligands” (priority 2006, dated 2014)
Read-outs that look alike come from different tables or passages of the source. No end group written: not given here.

Columns and labels:
[1] = target: T1, FPRL1 (Homo sapiens, UniProt P25090); assay: Calcium flux in FPRL1-transfected CHO-K1 cells; type: cell-based; set-up: expressed in transfected cells; host or cells: CHO-K1 (ATCC-CCL-61), transient co-transfection; conditions: for ability to induce calcium flux (P33 family): 0.1, 1, 10, 100, 1000, 10000 nM; for calcium flux (P58 family): dose response, FPRL1 transfected CHO cells
T1 sequence (P25090 1-351): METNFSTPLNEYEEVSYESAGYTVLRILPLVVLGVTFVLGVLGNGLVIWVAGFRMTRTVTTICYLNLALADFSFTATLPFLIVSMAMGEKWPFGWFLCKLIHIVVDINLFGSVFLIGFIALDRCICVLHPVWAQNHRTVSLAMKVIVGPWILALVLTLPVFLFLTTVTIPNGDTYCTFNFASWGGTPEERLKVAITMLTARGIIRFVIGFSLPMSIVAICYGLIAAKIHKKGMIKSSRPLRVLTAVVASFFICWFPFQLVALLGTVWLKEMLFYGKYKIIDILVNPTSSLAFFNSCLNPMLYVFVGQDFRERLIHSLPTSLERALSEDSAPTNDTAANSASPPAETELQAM
Description: (§1) The assay was carried out in CHO cells were transiently transfected with the GPCR of choice, by utilizing the promiscuous Gα16 to divert signaling to the Gq pathway, thus enabling readout of GPCR activation by testing for Calcium flux as described by Liu et al 2003 (Biomol Screen 8, 39-49).
(§2) All the peptides thus obtained were tested for their ability to change calcium flux in CHO-K1 cells (ATCC-CCL-61) transiently co-transfected with an expression vector containing the GPCR of choice and expression vector containing the Gα16 encoding cDNA. Expression constructs containing cDNA clones for MrgX1, MrgX2, Mas or FPRL1 were commercially obtained in one of the following expression vectors: pcDNA3.1, pCMV6, or MO2.
(§3) Transient transfections were performed using CHO-K1 cells as host cells. Cells (12 million) were plated into T75 flasks on the day preceding transfection. Cells were transfected with the appropriate GPCR expression vector and with a vector expressing Gα16 using a lipid-based reagent, MTI, according to the manufacturer's recommendation. Cells were transfected for 5 hours, then re-plated into 96-well dishes (60,000 cells per well) and grown overnight.
On the day of the experiment, cells were loaded with Fluo-4-NW (Invitrogen) according to the manufacturer's recommendation. Plates were loaded into a FlexStation™ (Molecular Devices) plate reader and fluorescence was monitored. […] Each 96 well plate contained cells transfected with one GPCR expression vector and each of the examined peptides was tested in triplicate.
(§4) We defined a hit as a peptide which elicited a clear and distinct increase in intracellular calcium that is clearly visible and statistically significant upon examination of the calcium trace for at least two repeats. The criterion for statistical significance was a p-value lower than 0.001 in a t-test comparing the levels of calcium before and after peptide addition.
The ability of Peptides to change calcium flux was examined in CHO-K1 cells co-transfected with FPRL1 and Gα16.
The P33-derived peptides (see FIG. 1): P33_V (SEQ ID NO:7), P33 (SEQ ID NO:6)-mono, P33 (SEQ ID NO:6)-dimer, P33—5 (SEQ ID NO:27), P33—8 (SEQ ID NO:14), P33—9 (SEQ ID NO:15) and P33—10 (SEQ ID NO:16) were tested for their ability to activate FPRL1 using the calcium flux assay in FPRL1-transfected CHO cells. […] The lack of activity of these peptides might be due to reduced potency; insufficient sensitivity of the experimental system, alternative interaction of the receptor, or activation of other pathways, which are not related to calcium flux. Thus, this interaction should be further characterized.

[2] = system: Zymosan-induced murine dorsal air pouch model; type: in vivo, mice; conditions: 4 h
Description: In order to analyze the ability of P58 to exert in vivo effects via the FPRL1 receptor, an acute experimental model of inflammation, the Zymosan-induced murine dorsal air pouch model, was used.
(§5) Male out-bred Swiss albino mice were purchased from Harlan, UK (T.O. strain) and maintained on a standard chow pellet diet with tap water ad libitum and a 12:00 h light /dark cycle. All animals were housed for 7 days prior to experimentation to allow body weight to reach ˜30 g on the day of the experiment.
Drugs were stored at −20° C. and defrosted on the day of the experiment. Peptide P58 was provided lyophilized; it was taken back to room temperature and dissolved with sterile PBS before use to make an initial 1 mg/ml solution. Peptide Ac2-26 (positive control) was also dissolved with sterile PBS before use to make an initial 1 mg/ml solution. Vehicle consisted of sterile pyrogen free PBS (Gibco, cat no. 14190-094). Once dissolved, P58 (SEQ ID NO:1) and Ac2-26 gave a clear solution. Drugs or vehicle were administered i.v. at a final volume of 200-μl, this volume containing the doses described below.
Lavage fluids were kept all the time on ice, then used to determine the number of migrated leukocytes, by taking an aliquot (100 μl) and diluting it 1:10 in Turk's solution (0.01% crystal violet in 3% acetic acid). The samples were then vortexed and 10 μl of the stained cell solution were placed in a Neubauer haematocymometer. Differential cell count was done using a light microscope (Olympus B061). In view of their chromatic characteristics and their nucleus and cytoplasm appearance, polymorphonuclear leukocytes (PMN; >95% neutrophils) could be easily identified.
For FACS analyses, an aliquot of lavage fluid was stained with the PE-conjugated anti-GR-1 monoclonal antibody (1:100 dilution, BD Biosciences; Cat 553128) to mark polymorphonuclear leukocytes. Staining was performed at 4° C.
Flow cytometry was performed using FACScan analyser (Becton Dickinson, Cowley, UK) with air-cooled 100 mW argon laser tuned to 488 nm connected to an Apple Macintosh G3 computer running Cell Quest II software. Forward and sidescatter characteristics were initially used to distinguish between the three distinct cell populations (lymphocytes, monocytes and granulocytes). Cells positive for GR-1 were detected in the FL2 channel (wavelength of 548 nm). Data are expressed as percentage of positive cells (in relation to the specific mAb). Determination of positive and negative populations was performed based on the control staining with irrelevant IgG isotype (rat IgG2b) labelled with PE. Once determined, quadrants were rigorously maintained for all analyses.
Data are shown for single mice, and also shown as mean±S.E. of (n) mice per group. Statistical differences were determined by ANOVA, plus Student Newman Keuls test. A P value <0.05 was taken as significant.
The anti-inflammatory activity of P58 shorter derivatives was tested in the same model of acute inflammation used in Example 6, the Zymosan-induced murine dorsal air pouch model.
as §5, with “˜25” for “˜30”
Drugs were stored at −20° C. and defrosted on the day of the experiment. Peptide P58 (SEQ ID NO:1) was provided lyophilized; it was taken back to room temperature and dissolved with sterile PBS before use to make an initial 1 mg/ml solution. Peptide P58-4 (SEQ ID NO:2) was provided lyophilized; it was taken back to room temperature and dissolved with sterile PBS before use to make an initial 327 μg/ml solution. Peptide P58-5 (SEQ ID NO:3) was provided lyophilized; it was taken back to room temperature and dissolved with sterile PBS before use to make an initial 476 μg/ml solution. […]

[3] = target: T2, Mas receptor (Homo sapiens, UniProt P04201); assay: Calcium flux in Mas-transfected CHO-K1 cells; type: cell-based; conditions: for ability to induce calcium flux, relative potency (P61 family): dose response, Mas-transfected cells; for ability to induce calcium flux, relative potency (P33 family): 0.1, 1, 10, 100, 1000 and 10000 nM
T2 construct: expressed in transfected cells; host or cells: CHO-K1 (ATCC-CCL-61), transient co-transfection
T2 sequence (P04201 1-325): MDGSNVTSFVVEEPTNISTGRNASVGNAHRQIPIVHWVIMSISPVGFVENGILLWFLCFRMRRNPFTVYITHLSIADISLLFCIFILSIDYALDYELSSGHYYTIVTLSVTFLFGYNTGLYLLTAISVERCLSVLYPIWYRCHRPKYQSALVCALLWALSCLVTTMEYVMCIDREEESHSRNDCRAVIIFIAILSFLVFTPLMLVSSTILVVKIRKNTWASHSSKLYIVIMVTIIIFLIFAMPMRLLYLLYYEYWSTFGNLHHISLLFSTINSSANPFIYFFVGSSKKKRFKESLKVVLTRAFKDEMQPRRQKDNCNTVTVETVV
Description: as §1, §2, §3
On the day of the experiment, cells were loaded with Fluo-4-NW (Invitrogen) according to the manufacturer's recommendation. Plates were loaded into a FlexStation™ (Molecular Devices) plate reader and fluorescence was monitored. Seventeen seconds following initiation of reading, cells were stimulated with the indicated agonist/compound at final concentration of 1 μM. Each 96 well plate contained cells transfected with one GPCR expression vector and each of the examined peptides was tested in triplicate.
as §4
Based on dose response experiments, EC50 best fit values were calculated by non-linear regression of sigmoidal dose-response curves, using Prism version 4 (GraphPad Software Inc., San Diego, Calif.). The formulae for the sigmoidal dose-response curves was defined as Y=Bottom+(Top−Bottom)/(1+10^(Log EC50−X)*HillSlope))
The ability of Peptides to change calcium flux was examined in CHO-K1 cells co-transfected with Mas receptor and Gα16.
The P33 monomer and dimer, as well as other P33 derivative peptides were compared for their ability to induce calcium flux in the Mas-transfected cells at 0.1, 1, 10, 100, 1000 and 10000 nM.

ability to induce calcium flux (P33 family) [1] | calcium flux (P58 family) [1] | Substance | ability to induce calcium flux, relative potency (P33 family) [3] | also measured
 | elicited calcium flux | LQKFTSWFM-amide (LQKFTSWFM-NH2; listed as Homo sapiens) [P58—5] |  | inhibition of leukocyte accumulation triggered by zymosan A ([2]; Example 7, 20 nmole/mouse i.v.): did not inhibit leukocyte migration; inhibition of zymosan-induced neutrophil (GR-1+) accumulation ([2]; Example 7, 20 nmole/mouse i.v., FACS): weak effect; inhibition of leukocyte accumulation triggered by zymosan A ([2]; Example 7, 80 nmole/mouse i.v.): 29%
 | did not induce calcium flux | TIPMFVPESTS (listed as Homo sapiens) [P58—6] |  | 
 | did not induce calcium flux | TIPMFVPESTSKLQ (listed as Homo sapiens) [P58—7] |  | 
 | did not induce calcium flux | TIPMFVPESTSTLQ (listed as Homo sapiens) [P58—12] |  | 
 | elicited calcium flux | TIPMFVPESTSTLQKFTSWFM-amide (TIPMFVPESTSTLQKFTSWFM-NH2; listed as Homo sapiens) [P58—10] |  | 

Continued, substance first:

Substance | ability to induce calcium flux (P33 family) [1] | calcium flux (P58 family) [1] | ability to induce calcium flux, relative potency (P33 family) [3] | also measured
AVLFPAAHRP (listed as Homo sapiens) [P33—5] | failed to induce calcium flux |  |  | 
Ac2-26: a peptide derived from the N-terminus of AnnexinI, known FPRL1 agonist, positive control (AMVSEFLKQAWFIENEEQEYVQTVK) [reference compound] |  |  |  | inhibition of leukocyte accumulation triggered by zymosan A ([2]; Example 6, 200 μg/mouse i.v.): inhibited significantly; inhibition of neutrophil (GR-1+) accumulation triggered by zymosan A ([2]; Example 6, 200 μg/mouse i.v., FACS): 52%
Angiotensin 1-7 [Ang-(1-7), reference compound] |  |  |  | Ca response ([3]; Mas dose response experiment, data not shown): did not induce Ca response
FAFLGYSIYLNRKRRGDPAF (listed as Homo sapiens) [P61—11S] |  |  |  | ability to induce calcium flux, relative potency (P61 family) [3]: as potent as P61_S
FTSWFM-amide (FTSWFM-NH2; listed as Homo sapiens) [P58—4] |  | elicited calcium flux |  | inhibition of leukocyte accumulation triggered by zymosan A ([2]; Example 7, 20 nmole/mouse i.v.): 35%; inhibition of leukocyte accumulation triggered by zymosan A ([2]; Example 7, 80 nmole/mouse i.v.): 47%; inhibition of zymosan-induced neutrophil (GR-1+) accumulation ([2]; Example 7, 80 nmole/mouse i.v., FACS): 49%
HRWSRAVLFPAAHRP (listed as Homo sapiens) [P33—9] | failed to induce calcium flux |  | induced calcium flux, albeit at a somewhat lower degree compared to P33_V | 
IYLNRKRRGDPAFKRRLRD (listed as Homo sapiens) [P61—4] |  |  |  | ability to induce calcium flux, relative potency (P61 family) [3]: somewhat weaker
RWSRAVLFPAAHRP (listed as Homo sapiens) [P33—8] | failed to induce calcium flux |  | induced calcium flux, albeit at a somewhat lower degree compared to P33_V | 
SMCHRWSRAVLFPAAHRP [P33_dimer] (also: disulfide dimer via cysteine; listed as Homo sapiens) [Peptide P33_dimer] |  |  | superior to the monomeric peptides | 
SMCHRWSRAVLFPAAHRP [P33_mono] (listed as Homo sapiens) [Peptide P33_mono] | similarly potent |  | equally potent | 
WSRAVLFPAAHRP (listed as Homo sapiens) [P33—10] | failed to induce calcium flux |  | induced calcium flux, albeit at a somewhat lower degree compared to P33_V | 
